PMC6778125, “Cryo-EM structure of the bacterial Ton motor subcomplex ExbB–ExbD provides information on structure and stoichiometry” (Communications Biology, 2019)

B1: ExbB (natural protein, UniProt P0ABU7 1-244, looked up)
chain: MGNNLMQTDLSVWGMYQHADIVVKCVMIGLILASVVTWAIFFSKSVEFFNQKRRLKREQQLLAEARSLNQANDIAADFGSKSLSLHLLNEAQNELELSEGSDDNEGIKERTSFRLERRVAAVGRQMGRGNGYLATIGAISPFVGLFGTVWGIMNSFIGIAQTQTTNLAVVAPGIAEALLATAIGLVAAIPAVVIYNVFARQIGGFKAMLGDVAAQVLLLQSRDLDLEASAAAHPVRVAQKLRAG
notes: ExbB, inner membrane subunit of the Ton complex, 244 residues, three TM helices; native exbB, no tag; also called native ExbB; ExbB pentamer; source: reconstituted in lipid nanodiscs (MSP1E3D1, E. coli polar lipid extract)

Legend:
[1] = molecular target: ExbD (UniProt P0ABV2); assay: cryo-EM structure; single particle cryo-EM of the co-expressed, purified full-length ExbB-ExbD complex in lipid nanodiscs (MSP1E3D1, E. coli polar lipid extract); Tris 25 mM pH7.4 NaCl 200 mM; C1 symmetry, 3.3 Å
[2] = molecular target: the molecule itself; assay: as above

Molecule	stoichiometry N [1]	stoichiometry N [2]
ExbD (from UniProt P0ABV2 1-141) (natural protein)	2	–
B1	–	5
